# Experimental data: patent US12006344 (Novo Nordisk, dated 2024)
# Numbering of substitutions follows the chain as printed. In names and notes the source's numbering stands.
# B1: (AEE)2AES-MIC-1-Δ1-3 (ligand)
# chain: AEEAEEAESGDHCPLGPGRCCRLHTVRASLEDLGWADWVLSPREVQVTMCIGACPSQFRAANMHAQIKTSLHRLKPDTVPAPCCVPASYNPMVLIQKTDTGVSLQTYDDLLAKDCHCI
# B2: AEEAES-MIC-1-Δ1-3 (ligand)
# chain: AEEAESGDHCPLGPGRCCRLHTVRASLEDLGWADWVLSPREVQVTMCIGACPSQFRAANMHAQIKTSLHRLKPDTVPAPCCVPASYNPMVLIQKTDTGVSLQTYDDLLAKDCHCI
# B3: (AEE)3AES-MIC-1-Δ1-3 (ligand)
# chain: AEEAEEAEEAESGDHCPLGPGRCCRLHTVRASLEDLGWADWVLSPREVQVTMCIGACPSQFRAANMHAQIKTSLHRLKPDTVPAPCCVPASYNPMVLIQKTDTGVSLQTYDDLLAKDCHCI
# B4: (AEE)6AES-MIC-1(SEQ ID NO: 1) (ligand)
# chain: AEEAEEAEEAEEAEEAEEAESGDHCPLGPGRCCRLHTVRASLEDLGWADWVLSPREVQVTMCIGACPSQFRAANMHAQIKTSLHRLKPDTVPAPCCVPASYNPMVLIQKTDTGVSLQTYDDLLAKDCHCI
# B5: (AEE)5AES-MIC-1-Δ1-3 (ligand)
# chain: AEEAEEAEEAEEAEEAESGDHCPLGPGRCCRLHTVRASLEDLGWADWVLSPREVQVTMCIGACPSQFRAANMHAQIKTSLHRLKPDTVPAPCCVPASYNPMVLIQKTDTGVSLQTYDDLLAKDCHCI
# B6: (GEPS)5-MIC-1 (SEQ ID NO: 1) (ligand)
# chain: GEPSGEPSGEPSGEPSGEPSARNGDHCPLGPGRCCRLHTVRASLEDLGWADWVLSPREVQVTMCIGACPSQFRAANMHAQIKTSLHRLKPDTVPAPCCVPASYNPMVLIQKTDTGVSLQTYDDLLAKDCHCI
# B7: AASPAGSPTSTEEGTSESATPESGPG-MIC-1 (SEQ ID NO: 1) (ligand)
# chain: AASPAGSPTSTEEGTSESATPESGPGARNGDHCPLGPGRCCRLHTVRASLEDLGWADWVLSPREVQVTMCIGACPSQFRAANMHAQIKTSLHRLKPDTVPAPCCVPASYNPMVLIQKTDTGVSLQTYDDLLAKDCHCI
# B8: MIC-1 (SEQ ID NO: 1) (ligand)
# chain: ARNGDHCPLGPGRCCRLHTVRASLEDLGWADWVLSPREVQVTMCIGACPSQFRAANMHAQIKTSLHRLKPDTVPAPCCVPASYNPMVLIQKTDTGVSLQTYDDLLAKDCHCI
# B9: MIC-1(R2A, N3E, M57E) (ligand)
# chain: B8 chain with R2A, N3E, M57E
# B10: MIC-1(R2A, N3E, L68E) (ligand)
# chain: B8 chain with R2A, N3E, L68E
# B11: MIC-1(R2A, N3E, K107E) (ligand)
# chain: B8 chain with R2A, N3E, K107E
# B12: MIC-1(R2A, N3E, H18E) (ligand)
# chain: B8 chain with R2A, N3E, H18E
# B13: MIC-1(R2A, N3E, R53E) (ligand)
# chain: B8 chain with R2A, N3E, R53E
# B14: MIC-1(R2A, N3E, L105E) (ligand)
# chain: B8 chain with R2A, N3E, L105E
# B15: MIC-1(R2A, N3E, A30E) (ligand)
# chain: B8 chain with R2A, N3E, A30E
# B16: AES-MIC-1-Δ1-3 (ligand)
# chain: B8 chain with R2E, N3S
# B17: MIC-1(R2A, N3E, A47E) (ligand)
# chain: B8 chain with R2A, N3E, A47E
# B18: MIC-1(R2A, N3E) (ligand)
# chain: B8 chain with R2A, N3E
# B19: MIC-1(R2A, N3E, R67E) (ligand)
# chain: B8 chain with R2A, N3E, R67E
# B20: MIC-1(R2A, N3E, P11E) (ligand)
# chain: B8 chain with R2A, N3E, P11E
# B21: MIC-1(R2A, N3E, A54E) (ligand)
# chain: B8 chain with R2A, N3E, A54E
# B22: MIC-1(R2A, N3E, P85E) (ligand)
# chain: B8 chain with R2A, N3E, P85E
# B23: MIC-1(R2A, N3E, R21E) (ligand)
# chain: B8 chain with R2A, N3E, R21E
# B24: MIC-1(R2A, N3E, K69E) (ligand)
# chain: B8 chain with R2A, N3E, K69E
# B25: SPAGSPTSTEEGTSESATPESGPG-MIC-1 (SEQ ID NO: 1) (ligand)
# chain: SPAGSPTSTEEGTSESATPESGPGARNGDHCPLGPGRCCRLHTVRASLEDLGWADWVLSPREVQVTMCIGACPSQFRAANMHAQIKTSLHRLKPDTVPAPCCVPASYNPMVLIQKTDTGVSLQTYDDLLAKDCHCI
# B26: TSESATPESGPGTSESATPESGPG-MIC-1(R2A, N3E) (ligand)
# chain: TSESATPESGPGTSESATPESGPGAAEGDHCPLGPGRCCRLHTVRASLEDLGWADWVLSPREVQVTMCIGACPSQFRAANMHAQIKTSLHRLKPDTVPAPCCVPASYNPMVLIQKTDTGVSLQTYDDLLAKDCHCI
# Biological target: T1, human MIC-1 receptor (hGFRAL, GDNF family receptor alpha like) (human, UniProt Q6UXV0 19-394)
# T1 sequence (looked up): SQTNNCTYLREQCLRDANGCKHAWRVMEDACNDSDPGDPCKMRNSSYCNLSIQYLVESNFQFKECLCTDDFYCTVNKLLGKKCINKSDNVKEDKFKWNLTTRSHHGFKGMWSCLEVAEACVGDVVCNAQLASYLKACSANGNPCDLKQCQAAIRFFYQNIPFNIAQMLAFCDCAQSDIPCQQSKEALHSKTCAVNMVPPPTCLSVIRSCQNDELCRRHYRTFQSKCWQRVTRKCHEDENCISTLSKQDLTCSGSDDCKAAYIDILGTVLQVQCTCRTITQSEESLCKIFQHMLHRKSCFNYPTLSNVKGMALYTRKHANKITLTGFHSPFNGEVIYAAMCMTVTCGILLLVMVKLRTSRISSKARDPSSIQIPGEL
# Assay: cell-based or functional assay
Binder,pERK EC50 (nM),pERK Emax (%)
B1,0.4 nM,100%
B2,0.3 nM,100%
B3,0.5 nM,100%
B4,0.8 nM,100%
B5,0.5 nM,100%
B6,0.5 nM,100%
B7,0.4 nM,100%
B8,0.3 nM,100%
B9,0.3 nM,70%
B10,0.8 nM,100%
B11,0.3 nM,100%
B12,0.5 nM,100%
B13,0.4 nM,100%
B14,0.7 nM,100%
B15,0.7 nM,100%
B16,0.3 nM,100%
B17,0.4 nM,100%
B18,0.3 nM,100%
B19,0.5 nM,100%
B20,0.4 nM,100%
B21,0.3 nM,100%
B22,0.6 nM,100%
B23,0.6 nM,100%
B24,0.5 nM,100%
B25,0.4 nM,100%
B26,0.3 nM,100%
